Reference: article PMC6220982
“And” between values parts separate entries of the source, which are not always exact repeats. Equal entries are not always repeated.

What was measured:
[1] = biological target: Asn3-ISP (intracellular subtilisin protease from Planococcus sp. AW02J18, starting at Asn3) (Planococcus sp. AW02J18); experiment: SEC; pre-calibrated Superdex 200 10/300 GL; 500 µl Asn3-ISP at 0.8 mg/mL; 50 mM Tris-HCl pH 7.5, 150 mM NaCl; without calcium or with 1 mM EDTA (overnight)
[2] = biological target: Asn3-ISP (intracellular subtilisin protease from Planococcus sp. AW02J18, starting at Asn3) (Planococcus sp. AW02J18); experiment: SEC; pre-calibrated Superdex 200 10/300 GL; 500 µl Asn3-ISP at 0.8 mg/mL; 50 mM Tris-HCl pH 7.5, 150 mM NaCl; with 2 mM CaCl2 added immediately before the run

- stoichiometry N (monomers per oligomer) [1]: 3.3
- stoichiometry N (monomers per oligomer) [2]: 3.7 and 2.5
Substance: Asn3-ISP (intracellular subtilisin protease from Planococcus sp. AW02J18, starting at Asn3) (enzyme)
